{"source": "patent US10030233B2", "about": "“Modified P450 reductase with N-terminal deletions and endoplasmic reticulum retention tag” (DE MONTFORT UNIVERSITY, priority 2013, dated 2018)", "molecules": {"B1": {"name": "ΔN1hRD-HDEL: human P450 reductase lacking N-terminal 24 amino acids, with C-terminal yeast ER retention signal HDEL (protein)", "chain": "MTDMILFSLIVGLLTYWFLFRKKKEEVPEFTKIQTLTSSVRESSFVEKMKKTGRNIIVFYGSQTGTAEEFANRLSKDAHRYGMRGMSADPEEYDLADLSSLPEIDNALVVFCMATYGEGDPTDNAQDFYDWLQETDVDLSGVKFAVFGLGNKTYEHFNAMGKYVDKRLEQLGAQRIFELGLGDDDGNLEEDFITWREQFWPAVCEHFGVEATGEESSIRQYELVVHTDIDAAKVYMGEMGRLKSYENQKPPFDAKNPFLAAVTTNRKLNQGTERHLMHLELDISDSKIRYESGDHVAVYPANDSALVNQLGKILGADLDVVMSLNNLDEESNKKHPFPCPTSYRTALTYYLDITNPPRTNVLYELAQYASEPSEQELLRKMASSSGEGKELYLSWVVEARRHILAILQDCPSLRPPIDHLCELLPRLQARYYSIASSSKVHPNSVHICAVVVEYETKAGRINKGVATNWLRAKEPAGENGGRALVPMFVRKSQFRLPFKATTPVIMVGPGTGVAPFIGFIQERAWLRQQGKEVGETLLYYGCRRSDEDYLYREELAQFHRDGALTQLNVAFSREQSHKVYVQHLLKQDREHLWKLIEGGAHIYVCGDARNMARDVQNTFYDIVAELGAMEHAQAVDYIKKLMTKGRYSLDVWSHDEL", "modifications": "delN1hRD-HDEL", "notes": "human P450 reductase lacking N-terminal 24 amino acids, with C-terminal yeast ER retention signal HDEL"}, "B2": {"name": "hRD: wild-type human P450 reductase, full length, control (protein, listed as Homo sapiens)", "chain": "MGDSHVDTSSTVSEAVAEEVSLFSMTDMILFSLIVGLLTYWFLFRKKKEEVPEFTKIQTLTSSVRESSFVEKMKKTGRNIIVFYGSQTGTAEEFANRLSKDAHRYGMRGMSADPEEYDLADLSSLPEIDNALVVFCMATYGEGDPTDNAQDFYDWLQETDVDLSGVKFAVFGLGNKTYEHFNAMGKYVDKRLEQLGAQRIFELGLGDDDGNLEEDFITWREQFWPAVCEHFGVEATGEESSIRQYELVVHTDIDAAKVYMGEMGRLKSYENQKPPFDAKNPFLAAVTTNRKLNQGTERHLMHLELDISDSKIRYESGDHVAVYPANDSALVNQLGKILGADLDVVMSLNNLDEESNKKHPFPCPTSYRTALTYYLDITNPPRTNVLYELAQYASEPSEQELLRKMASSSGEGKELYLSWVVEARRHILAILQDCPSLRPPIDHLCELLPRLQARYYSIASSSKVHPNSVHICAVVVEYETKAGRINKGVATNWLRAKEPAGENGGRALVPMFVRKSQFRLPFKATTPVIMVGPGTGVAPFIGFIQERAWLRQQGKEVGETLLYYGCRRSDEDYLYREELAQFHRDGALTQLNVAFSREQSHKVYVQHLLKQDREHLWKLIEGGAHIYVCGDARNMARDVQNTFYDIVAELGAMEHAQAVDYIKKLMTKGRYSLDVWS"}, "B3": {"name": "ΔN2hRD-HDEL: human P450 reductase lacking the 54-amino acid membrane anchoring region, with C-terminal yeast ER retention signal HDEL (protein)", "chain": "MTKIQTLTSSVRESSFVEKMKKTGRNIIVFYGSQTGTAEEFANRLSKDAHRYGMRGMSADPEEYDLADLSSLPEIDNALVVFCMATYGEGDPTDNAQDFYDWLQETDVDLSGVKFAVFGLGNKTYEHFNAMGKYVDKRLEQLGAQRIFELGLGDDDGNLEEDFITWREQFWPAVCEHFGVEATGEESSIRQYELVVHTDIDAAKVYMGEMGRLKSYENQKPPFDAKNPFLAAVTTNRKLNQGTERHLMHLELDISDSKIRYESGDHVAVYPANDSALVNQLGKILGADLDVVMSLNNLDEESNKKHPFPCPTSYRTALTYYLDITNPPRTNVLYELAQYASEPSEQELLRKMASSSGEGKELYLSWVVEARRHILAILQDCPSLRPPIDHLCELLPRLQARYYSIASSSKVHPNSVHICAVVVEYETKAGRINKGVATNWLRAKEPAGENGGRALVPMFVRKSQFRLPFKATTPVIMVGPGTGVAPFIGFIQERAWLRQQGKEVGETLLYYGCRRSDEDYLYREELAQFHRDGALTQLNVAFSREQSHKVYVQHLLKQDREHLWKLIEGGAHIYVCGDARNMARDVQNTFYDIVAELGAMEHAQAVDYIKKLMTKGRYSLDVWSHDEL", "modifications": "delN2hRD-HDEL", "notes": "human P450 reductase lacking the 54-amino acid membrane anchoring region, with C-terminal yeast ER retention signal HDEL"}}}
{"molecular_target": "T1, CYP1A2 (Homo sapiens, UniProt P05177)", "T1 construct": "A 1563 bp BamHI-XhoI fragment containing the human CYP1A2 gene; made in house; host or cells: Saccharomyces cerevisiae W303B, microsomes", "T1 sequence (P05177 1-516)": "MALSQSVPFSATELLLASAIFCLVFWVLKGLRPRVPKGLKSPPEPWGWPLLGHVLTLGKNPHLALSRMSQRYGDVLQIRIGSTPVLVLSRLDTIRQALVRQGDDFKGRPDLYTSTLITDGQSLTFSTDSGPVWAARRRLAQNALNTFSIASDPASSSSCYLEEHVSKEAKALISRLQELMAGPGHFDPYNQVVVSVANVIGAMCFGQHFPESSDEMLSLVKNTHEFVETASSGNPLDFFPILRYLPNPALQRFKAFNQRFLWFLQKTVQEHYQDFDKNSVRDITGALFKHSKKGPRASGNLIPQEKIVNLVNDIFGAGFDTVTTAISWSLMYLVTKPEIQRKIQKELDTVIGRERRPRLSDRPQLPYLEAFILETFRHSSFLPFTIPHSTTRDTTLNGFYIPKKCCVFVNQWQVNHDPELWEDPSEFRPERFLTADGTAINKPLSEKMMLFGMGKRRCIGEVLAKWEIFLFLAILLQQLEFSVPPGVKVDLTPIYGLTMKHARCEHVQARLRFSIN", "test": "not given", "format": "biochemical", "conditions": "not given"}
{"molecule": "B1", "pmoles of CYP1A2/mg of total protein (Relative Amounts)": "6 ± 10%"}
{"molecule": "B2", "pmoles of CYP1A2/mg of total protein (Relative Amounts)": 1}
{"molecule": "B3", "pmoles of CYP1A2/mg of total protein (Relative Amounts)": "6 ± 10%"}
{"system": "CYP1A2", "test": "Amount of CYP1A2 in yeast microsomes by CO-difference spectra, co-expressed with P450 reductase variants", "format": "cell-based, human", "conditions": "relative to hRD = 1; yeast W303B, pSYE265", "description": "(§1) The hRD variant genes, (ΔN1hRD-M, ΔN1hRD-HDEL, ΔN2hRD-HDEL), were integrated into Saccharomyces cerevisiae strain W303B (MAT a leu2 his3 trp1 can1-100 ade2 trp1 ura3) using standard yeast transformation procedures as detailed below. The integrating plasmids, bearing the ΔN1hRD-M, ΔN1hRD-HDEL, ΔN2hRD-HDEL genes, were first linearised with the restriction enzyme BstEII before introducing linearised DNA into yeast cells via homologous recombination. The resultant strains were named: • a) W303B-ΔN1hRD-M, • b) W303B-ΔN1hRD-HDEL, • c) W303B-ΔN2hRD-HDEL.\n(§2) They were used for the transformation of the yeast episomal plasmids that bear the CYP2D6 and CYP1A2 genes: • 1. pSYE264 (bearing the human CYP2D6 gene), • 2. pSYE265 (bearing the human CYP1A2 gene).\n(§3) A single colony from the strains W303B-ΔN1hRD-M, W303B-ΔN1hRD-HDEL, W303B-ΔN2hRD-HDEL were picked up from a minimal medium (SD) plate (supplemented with appropriate nutrients depending on the auxotrophic markers in the yeast strain) and inoculated into 10 ml of YPD medium (2% Bacto Peptone, 1% yeast extract, 2% glucose). The cells were grown overnight at 30° C. with 220 rpm shaking. 1.5 ml of overnight cultures were centrifuged at 13,000 rpm for a few seconds to collect the cell pellets. 0.5-2 μg of transforming DNA (i.e. the CYP bearing expression plasmids, pSYE264 and pSYE265) and 100 μg of single-stranded salmon sperm DNA were added to pellets and vortexed briefly. 500 μl of PEG solution (40% PEG 3350, 0.1M lithium acetate pH 7.5, 10 mM Tris-HCl pH 7.5, 1 mM EDTA pH7.5) and 5-10% DMSO were added to transformation mixes. All mixes were incubated in a Thermo-mixer for 15 min at 25° C. with shaking at 400 rpm, and then were heat shocked for 15 min at 42° C. After 10 min, 5-10% ethanol was added. The cells were pelleted at 8000 rpm for 1 min and were washed twice in 1×TE buffer and re-suspended in 250 μl-500 μl 1×TE pH7.5. The cells were plated out on SD agar medium and incubated at 30° C. for 2-3 days.\n(§4) Recombinant yeast cells were grown in culture using the following protocol: • 1. […] On day two, once OD600 (i.e. OD measured at 600 nm) of the cultures reached 5 to 6 OD-s, the cultures were inoculated into 400 ml YPD medium (1% Bacto Peptone, 1% yeast extract, 2% glucose) with appropriate nutrients in 2-liter flask. […] On day three, after 16 hours, optical density was again measured at 600 nm after diluting the original culture 1:10. […] At the final step, supernatant was poured away and the dry pellet was frozen at −80° C. and the pellet weight was recorded. […]\n(§5) The cell pellet that had been obtained from the earlier cell culture was weighed and the weight of cell pellet was recorded. […]"}
{"molecule": "B1", "Relative Amounts of CYP1A2 Obtained": "4.0 ± 10%"}
{"molecule": "B2", "Relative Amounts of CYP1A2 Obtained": 1}
{"molecule": "B3", "Relative Amounts of CYP1A2 Obtained": "4.5 ± 10%"}
{"system": "CYP2D6", "test": "Amount of CYP2D6 in yeast microsomes by CO-difference spectra, co-expressed with P450 reductase variants", "format": "cell-based, human", "conditions": "relative to hRD = 1; genes synthesized using yeast biased codons; yeast W303B, pSYE264", "description": "as §1, §2, §3, §4, §5"}
{"molecule": "B1", "Relative Amounts of CYP2D6 Obtained": "3.8 ± 10%"}
{"molecule": "B2", "Relative Amounts of CYP2D6 Obtained": 1}
{"molecule": "B3", "Relative Amounts of CYP2D6 Obtained": "4.0 ± 10%"}
